Measurements taken from the supplement of paper PMC7125110.
± gives the standard error. For some assays here: This sample holds only a part of the variants without activity.

B1: glmS ribozyme (parent)
chain: AUAAAAGCGCCAGAACUACAGAAAUGUAGUUGACGAGGAGGAGGUUUAUCGAAUUUUCGGCGGAUGCCUCCAAA

Legend:
Conditions in all cases: with glucosamine-6-phosphate
glucosamine-6-phosphate [1] = variants of: B1; assay: kcat; higher = faster cleavage; RNA array
How it was run: (§1)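 The measurements used barcoded ribozyme variants on sequenced MiSeq chips, transcribed in situ by E. coli RNA polymerase and tracked at 37 °C with a hybridised Cy3 probe. Glucosamine-6-phosphate, 40 μM to 10 mM in HEPES/KCl/Mg(OAc)2 buffer, was flowed in while tiles were imaged over ~14 h. Baseline-normalised signals, also normalised to non-cleaving reference variants, gave per-tile medians that were fit to one- or two-exponential decays for kobs. kcat and KM resulted from weighted Michaelis–Menten fits across concentrations.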

glucosamine-6-phosphate [2] = variants of: B1; assay: KM; higher = weaker cofactor use; RNA array
How it was run: as §1

glucosamine-6-phosphate [3] = variants of: B1; assay: self-cleavage kobs at 160 uM GlcN6P; higher = faster cleavage; RNA array
How it was run: as §1

glucosamine-6-phosphate [4] = variants of: B1; assay: self-cleavage kobs at 640 uM GlcN6P; higher = faster cleavage; RNA array
How it was run: as §1

glucosamine-6-phosphate [5] = variants of: B1; assay: self-cleavage kobs at 40 uM GlcN6P; higher = faster cleavage; RNA array
How it was run: as §1

glucosamine-6-phosphate [6] = variants of: B1; assay: self-cleavage kobs at 10000 uM GlcN6P; higher = faster cleavage; RNA array
How it was run: as §1

glucosamine-6-phosphate [7] = variants of: B1; assay: self-cleavage kobs at 2500 uM GlcN6P; higher = faster cleavage; RNA array
How it was run: as §1

Row | Variant | kcat (glucosamine-6-phosphate [1]) | KM (glucosamine-6-phosphate [2]) | self-cleavage kobs at 160 uM GlcN6P (glucosamine-6-phosphate [3]) | self-cleavage kobs at 640 uM GlcN6P (glucosamine-6-phosphate [4]) | self-cleavage kobs at 40 uM GlcN6P (glucosamine-6-phosphate [5]) | self-cleavage kobs at 10000 uM GlcN6P (glucosamine-6-phosphate [6]) | self-cleavage kobs at 2500 uM GlcN6P (glucosamine-6-phosphate [7])
1 | G32A C61A | < 1e-05 s⁻¹ | – | – | – | – | – | –
2 | G29A G38A C67A | 1.79e-05 ± 4.1e-06 s⁻¹ | – | – | – | – | – | –
3 | U47C A52C | 4.02e-05 ± 1.2e-06 s⁻¹ | 3020 ± 290 µM | < 1e-05 s⁻¹ | < 1e-05 s⁻¹ | – | – | –
4 | A12U G13C | < 1e-05 s⁻¹ | – | < 1e-05 s⁻¹ | < 1e-05 s⁻¹ | < 1e-05 s⁻¹ | – | –
5 | A12G A33U | 1.86e-05 ± 6.4e-06 s⁻¹ | – | – | – | < 1e-05 s⁻¹ | < 1e-05 s⁻¹ | –
6 | G13A U47A | 0.000438 ± 6e-05 s⁻¹ | 3210 ± 750 µM | – | 7.42e-05 ± 1.6e-05 s⁻¹ | – | 0.000349 ± 6.5e-05 s⁻¹ | 0.000178 ± 3.2e-05 s⁻¹
7 | A14U A64U | 1.88e-05 ± 5.9e-07 s⁻¹ | 8870 ± 560 µM | – | – | – | – | –
8 | A48C U55A | 0.000411 ± 0.0001 s⁻¹ | 2110 ± 920 µM | – | 8.73e-05 ± 1.8e-05 s⁻¹ | – | 0.000272 ± 8.7e-05 s⁻¹ | 0.000276 ± 4.6e-05 s⁻¹
9 | A14C U46A | 0.000352 ± 1.6e-05 s⁻¹ | 1880 ± 170 µM | – | 9.13e-05 ± 1e-05 s⁻¹ | – | 0.000301 ± 3.2e-05 s⁻¹ | 0.000194 ± 2.1e-05 s⁻¹
10 | G41A U54C | 0.000448 ± 5.8e-05 s⁻¹ | 1810 ± 510 µM | – | 0.00013 ± 2.5e-05 s⁻¹ | – | 0.0004 ± 5.8e-05 s⁻¹ | 0.000223 ± 4.7e-05 s⁻¹
11 | C11U G59U | 0.000274 ± 3.6e-06 s⁻¹ | 1920 ± 51 µM | – | 6.88e-05 ± 6.5e-06 s⁻¹ | – | 0.00023 ± 1.9e-05 s⁻¹ | 0.000155 ± 1.6e-05 s⁻¹
12 | A6U U30A | 3.27e-05 ± 4.2e-06 s⁻¹ | – | < 1e-05 s⁻¹ | – | < 1e-05 s⁻¹ | 2.86e-05 ± 1e-05 s⁻¹ | –
13 | A6U A42G | 0.000505 ± 0.00011 s⁻¹ | 3730 ± 1400 µM | – | 8.54e-05 ± 1.6e-05 s⁻¹ | – | 0.00038 ± 6e-05 s⁻¹ | 0.000156 ± 5.1e-05 s⁻¹
14 | A15U U54G U65G | 0.000547 ± 5.8e-05 s⁻¹ | 1670 ± 300 µM | – | 0.000149 ± 2.4e-05 s⁻¹ | – | 0.00045 ± 0.00011 s⁻¹ | 0.00039 ± 0.00013 s⁻¹
15 | C10U G38U | < 1e-05 s⁻¹ | – | – | – | – | – | –
16 | U30G | 0.0156 ± 0.0046 s⁻¹ | 2400 ± 840 µM | 0.000809 ± 3e-05 s⁻¹ | 0.00344 ± 0.00013 s⁻¹ | 0.000284 ± 5.6e-06 s⁻¹ | 0.0157 ± 0.00058 s⁻¹ | 0.00622 ± 0.00028 s⁻¹
17 | G29C A33U | 2.55e-05 ± 6.2e-07 s⁻¹ | 979 ± 140 µM | – | – | – | 2.33e-05 ± 1.2e-05 s⁻¹ | –
18 | A52G U57A | 0.000484 ± 0.00016 s⁻¹ | – | 4.1e-05 ± 1.6e-05 s⁻¹ | 6.62e-05 ± 9.6e-06 s⁻¹ | – | 0.000289 ± 8e-05 s⁻¹ | 0.00023 ± 2.4e-05 s⁻¹
19 | C50U C61G C70U | 1.56e-05 ± 2.6e-06 s⁻¹ | – | – | – | – | – | –
